Assay results reported in patent US7598354 (NATIONAL RESEARCH COUNCIL OF CANADA, dated 2009).

B1: Cj0332c, nucleoside diphosphate kinase (Ndk) (enzyme)
chain: MEKTLSIIKPDAVKKGVIGKILDRFESNGLRIAAMKKVQLSKEQAENFYAVHKERPFFKDLVEFMISGPVVVSILEGEGAVLKNRDLMGATNPKEAKAGTIRADFAESIDANAVHGSDSLENAKIEIEFFFKPNEIC
B2: Cj0169, superoxide dismutase (Fe; SodB) (enzyme)
chain: MFELRKLPYDTNAFGDFLSAETFSYHHGKHHNTYVTNLNNLIKDTEFAGKDLVSIIKTSNGGVFNNAAQVYNHDFYFDCIKPSTGCGCGGSCQSIDANLQAALEKEFGSLENFKAEFIKGATGVFGSGWFWLVYNTKNQKLEFVGTSNAATPITEDKVPLLVVDVWEHAYYVDHRNARPAYLEKFYAHINWEFVAKAYEWALKEGMGSVSFYANELHPVK
B3: Cj0638c, inorganic pyrophosphatase (Ppa) (enzyme)
chain: MNLSKIKIGDIPNKINAVIEIPYGSNIKYEIDKDSGAIMVDRVMASAIFYPANYGFIANTLADDGDPVDILVLNEYPIQAGAVIPCRLIGVLIMEDESGMDEKLLAVPNSKIDARYDNIKTYTDLPQATLNKIKNFFETYKILEPNKWVKVQDFKDEKAAIEILEKAIKNYK

What follows are binders tested against T1, soybean agglutinin (SBA)-alkaline phosphatase conjugate (soybean, UniProt P05046 33-285, conjugated to alkaline phosphatase (EY Laboratories)) (assay: Western blot of 2D gel probed with SBA-alkaline phosphatase conjugate).
T1 construct: Lectin; Alkaline phosphatase part not described; also called GalNAc-specific lectin; SBA lectin
T1 sequence (P05046 33-285 limits assumed): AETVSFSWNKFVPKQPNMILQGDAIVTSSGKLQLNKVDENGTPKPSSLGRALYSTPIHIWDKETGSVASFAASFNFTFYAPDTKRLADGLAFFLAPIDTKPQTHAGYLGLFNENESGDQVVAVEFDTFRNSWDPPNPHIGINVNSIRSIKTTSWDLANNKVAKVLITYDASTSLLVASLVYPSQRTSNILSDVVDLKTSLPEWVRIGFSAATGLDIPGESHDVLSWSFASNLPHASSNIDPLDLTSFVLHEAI
B1: no binding (tested: 10 µg/mL).
B2: no binding (tested: 10 µg/mL).
B3: no binding (tested: 10 µg/mL).
